Results on 22 molecules are retold here after US20200115416A1 (REGENTS OF THE UNIVERSITY OF MINNESOTA, published 2020).

Common to all, as to assay: cell-based or functional assay
Assay [1] concerns the target T1, mouse melanocortin-5 receptor (mouse, UniProt P41149 1-325).
Assay [2] deals with T2, mouse melanocortin-3 receptor (mouse, UniProt P33033 1-323).
In assay [3] the target is T3, mouse melanocortin-4 receptor (mouse, UniProt P56450 1-332).
The target in assay [4] is T4, mouse melanocortin-1 receptor (mouse, UniProt Q01727 1-315).
T4 sequence (Q01727 whole entry): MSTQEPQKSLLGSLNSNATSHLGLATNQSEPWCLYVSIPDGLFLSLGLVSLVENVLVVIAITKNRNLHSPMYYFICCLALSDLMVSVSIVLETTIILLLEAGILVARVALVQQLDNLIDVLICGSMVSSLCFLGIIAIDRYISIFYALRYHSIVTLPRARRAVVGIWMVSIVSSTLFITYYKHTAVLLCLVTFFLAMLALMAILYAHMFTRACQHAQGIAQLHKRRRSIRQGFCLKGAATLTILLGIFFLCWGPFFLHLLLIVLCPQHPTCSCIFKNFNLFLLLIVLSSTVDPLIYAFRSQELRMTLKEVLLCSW
The target of assay [5] is T1, mouse melanocortin-5 receptor. This is another data set of the same source.
Assay [6] deals with T4, mouse melanocortin-1 receptor. This is another data set of the same source.
The target of assay [7] is T2, mouse melanocortin-3 receptor. This is another data set of the same source.
The target of assay [8] is T1, mouse melanocortin-5 receptor. The source holds these as a separate data set.
In assay [9] the target is T3, mouse melanocortin-4 receptor. The source holds these as a separate data set.
Assay [10] concerns the target human melanocortin-4 receptor (human, UniProt P32245 1-332).
In assay [11] the target is T4, mouse melanocortin-1 receptor. This is another data set of the same source.
For assay [12], the target named is T2, mouse melanocortin-3 receptor. This is another data set of the same source.
Assay [13] concerns the target T1, mouse melanocortin-5 receptor. This is another data set of the same source.

Where two headings read alike, the source gives them in different places. Square brackets hold non-standard residues; d marks the D form. hPhe = N[C@@H](CCc1ccccc1)C(=O)O; Nle = CCCC[C@H](N)C(=O)O; Dap = NC[C@H](N)C(=O)O Some results are limits rather than exact numbers.

T2 sequence (P33033 whole entry): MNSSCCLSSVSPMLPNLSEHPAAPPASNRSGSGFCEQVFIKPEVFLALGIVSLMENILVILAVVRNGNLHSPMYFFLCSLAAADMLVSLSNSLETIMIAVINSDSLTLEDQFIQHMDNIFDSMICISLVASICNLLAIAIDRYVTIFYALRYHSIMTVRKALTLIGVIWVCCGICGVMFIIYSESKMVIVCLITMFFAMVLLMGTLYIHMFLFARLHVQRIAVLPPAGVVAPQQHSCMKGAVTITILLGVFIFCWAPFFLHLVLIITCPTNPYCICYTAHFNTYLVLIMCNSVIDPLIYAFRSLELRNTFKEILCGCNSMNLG
T1 sequence (P41149 whole entry): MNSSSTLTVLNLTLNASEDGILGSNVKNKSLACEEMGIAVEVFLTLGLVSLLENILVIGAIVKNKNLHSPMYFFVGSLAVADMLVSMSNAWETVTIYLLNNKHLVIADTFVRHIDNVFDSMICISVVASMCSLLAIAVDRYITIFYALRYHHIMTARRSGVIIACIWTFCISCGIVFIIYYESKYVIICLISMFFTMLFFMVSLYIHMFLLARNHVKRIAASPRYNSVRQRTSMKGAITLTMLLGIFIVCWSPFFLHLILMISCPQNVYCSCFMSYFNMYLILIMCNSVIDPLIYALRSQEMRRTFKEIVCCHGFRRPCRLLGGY
T3 sequence (P56450 whole entry): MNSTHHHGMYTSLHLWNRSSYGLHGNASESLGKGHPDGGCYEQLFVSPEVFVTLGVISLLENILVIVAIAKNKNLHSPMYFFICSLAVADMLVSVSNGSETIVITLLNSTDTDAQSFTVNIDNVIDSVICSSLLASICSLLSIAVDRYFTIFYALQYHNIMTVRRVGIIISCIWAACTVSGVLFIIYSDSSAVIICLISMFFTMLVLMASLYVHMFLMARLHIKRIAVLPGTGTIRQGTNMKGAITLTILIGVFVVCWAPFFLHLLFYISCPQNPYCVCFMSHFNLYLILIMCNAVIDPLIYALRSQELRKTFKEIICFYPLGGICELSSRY
Sequence of human melanocortin-4 receptor (P32245 whole entry): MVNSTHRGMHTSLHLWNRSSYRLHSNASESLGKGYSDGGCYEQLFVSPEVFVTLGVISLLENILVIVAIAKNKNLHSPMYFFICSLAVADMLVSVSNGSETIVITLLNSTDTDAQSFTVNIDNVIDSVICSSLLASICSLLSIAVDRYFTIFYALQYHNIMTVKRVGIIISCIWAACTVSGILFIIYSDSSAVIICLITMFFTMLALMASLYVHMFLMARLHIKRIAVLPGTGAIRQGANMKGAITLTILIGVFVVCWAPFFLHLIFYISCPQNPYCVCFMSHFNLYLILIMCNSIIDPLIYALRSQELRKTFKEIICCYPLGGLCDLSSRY

Regarding cyclo(PRFFNA[hPhe][dP]) [c[Pro-Arg-Phe-Phe-Asn-Ala-hPhe-DPro]], in [1], the “inverse agonist apparent potency” value was found to be 0.29 µM and the “inverse agonist, % decrease from basal cAMP” value is -20%.

B1: c[Pro-Arg-Phe-hPhe-Arg-Ala-Nle-DPro] (peptide)
peptide: cyclo(PRF[hPhe]RA[Nle][dP])
SMILES: CCCC[C@@H]1NC(=O)[C@H](C)NC(=O)[C@H](CCCNC(=N)N)NC(=O)[C@H](CCc2ccccc2)NC(=O)[C@H](Cc2ccccc2)NC(=O)[C@H](CCCNC(=N)N)NC(=O)[C@@H]2CCCN2C(=O)[C@H]2CCCN2C1=O
Turning to B1, the figures for the “antagonist pA2 (Schild, agonist NDP-MSH)” value in assay [2] and in assay [3] were 7.5 and 8.8, respectively. Besides, in assay [4], the “agonist EC50 (cAMP AlphaScreen)” value is greater than 100 µM. Moreover, the “EC50 (cAMP AlphaScreen, inverse agonist)” value in assay [5] is greater than 100 µM.

Take cyclo(PRFFAAF[dP]) [c[Pro-Arg-Phe-Phe-Ala-Ala-Phe-DPro]]: in assay [6], the “agonist EC50 (cAMP AlphaScreen)” value was greater than 100 µM. Moreover, in [7], the “agonist EC50 (cAMP AlphaScreen)” value is greater than 100 µM and the “antagonist pA2 (Schild, agonist NDP-MSH)” value is less than 5.5. In addition, in [8], the “inverse agonist apparent potency” value was found to be 0.25 µM and the “inverse agonist, % decrease from basal cAMP” value is -20%. Besides, in assay [9], the “agonist EC50 (cAMP AlphaScreen)” value was greater than 100 µM and the “antagonist pA2 (Schild, agonist NDP-MSH)” value is 7.32. In addition, the “inverse agonist, % decrease from basal signal” value in assay [10] was -35%.

On to cyclo(PRFFNAF[dP]) (also: assayed as TFA salt) [c[Pro-Arg-Phe-Phe-Asn-Ala-Phe-DPro]], for which, in [4], the “agonist EC50 (cAMP AlphaScreen)” value was found to be 2.8 µM and the “partial agonist, % receptor stimulation” value came to 80%. Also, the “% maximal NDP-MSH response at 100 µM (cAMP AlphaScreen)” value (“% maximal NDP-MSH response at 100 µM” for short) in assay [6] is 25%. Besides, the “inverse agonist, % decrease from basal signal” value in assay [10] was -30%.

As to cyclo(PRFFSAF[dP]) [c[Pro-Arg-Phe-Phe-Ser-Ala-Phe-DPro]], the “agonist EC50 (cAMP AlphaScreen)” value in [6], in assay [7] and in assay [9] was greater than 100 µM each time. The “antagonist pA2 (Schild, agonist NDP-MSH)” value in assay [7] came to 5.9; in assay [9], 7.7. For the same molecule, the “inverse agonist apparent potency” value in [8] was 0.14 µM. Moreover, the “inverse agonist, % decrease from basal cAMP” value in [8] is -25%. Also, in assay [10], the “inverse agonist, % decrease from basal signal” value is -25%.

B2: c[Pro-Arg-Phe-hPhe-Arg-Ser-Nle-DPro] (peptide)
peptide: cyclo(PRF[hPhe]RS[Nle][dP])
SMILES: CCCC[C@@H]1NC(=O)[C@H](CO)NC(=O)[C@H](CCCNC(=N)N)NC(=O)[C@H](CCc2ccccc2)NC(=O)[C@H](Cc2ccccc2)NC(=O)[C@H](CCCNC(=N)N)NC(=O)[C@@H]2CCCN2C(=O)[C@H]2CCCN2C1=O
For the molecule B2, the “antagonist pA2 (Schild, agonist NDP-MSH)” value stood at 7.9 in assay [2] and 9.5 in assay [3]. Besides, the “agonist EC50 (cAMP AlphaScreen)” value in [4] is 0.4 µM. Further, the “EC50 (cAMP AlphaScreen, inverse agonist)” value in assay [5] was greater than 100 µM.

With cyclo(PRFFNAL[dP]) [c[Pro-Arg-Phe-Phe-Asn-Ala-Leu-DPro]], in assay [1], the “inverse agonist, % change from basal cAMP at 100 µM” value (shortened to “inverse agonist, % change”) is -35%.

For PRFFXAFP (head-to-tail cyclic; DDap at 5; DPro at 8) [c[Pro-Arg-Phe-Phe-DDap-Ala-Phe-DPro]], in [6], the “agonist EC50 (cAMP AlphaScreen)” value was greater than 100 µM. Besides, in assay [7], the “agonist EC50 (cAMP AlphaScreen)” value was greater than 100 µM and the “antagonist pA2 (Schild, agonist NDP-MSH)” value was determined as 6.7. Moreover, in assay [8], the “inverse agonist apparent potency” value was found to be 0.11 µM and the “inverse agonist, % decrease from basal cAMP” value is -10%. Moreover, the “inverse agonist, % decrease from basal signal” value in [10] is -30%.

Regarding PRFFXAFP (head-to-tail cyclic; DPhe at 4; Dap at 5; DPro at 8) [c[Pro-Arg-Phe-DPhe-Dap-Ala-Phe-DPro]], the figures for the “agonist EC50 (cAMP AlphaScreen)” value in assay [11], in [12] and in assay [13] were 0.8 µM, greater than 100 µM and greater than 100 µM, respectively. Besides, the “partial agonist efficacy, % of NDP-MSH” value in assay [11] came to 75%. Further, the “antagonist pA2 (Schild, agonist NDP-MSH)” value in assay [12] is less than 5.5.

With PRFFXAFP (head-to-tail cyclic; DArg at 2; DPhe at 3; Dap at 5; DPro at 8) [c[Pro-DArg-DPhe-Phe-Dap-Ala-Phe-DPro]], in [11], the “agonist EC50 (cAMP AlphaScreen)” value was determined as 0.8 µM and the “partial agonist efficacy, % of NDP-MSH” value is 70%. Further, in assay [12], the “agonist EC50 (cAMP AlphaScreen)” value was greater than 100 µM and the “antagonist pA2 (Schild, agonist NDP-MSH)” value was 6. For the same molecule, in assay [13], the “inverse agonist, % change” value was -30%.

With PRFFXAFP (head-to-tail cyclic; Dap at 5; DPro at 8) [c[Pro-Arg-Phe-Phe-Dap-Ala-Phe-DPro]], in [4], the “agonist EC50 (cAMP AlphaScreen)” value was 1.6 µM and the “partial agonist, % receptor stimulation” value is 80%. Also, in assay [5], the “EC50 (cAMP AlphaScreen, inverse agonist)” value was greater than 100 µM. Besides, the “% maximal NDP-MSH response at 100 µM” value in [6] turned out to be 30%. In addition, in assay [7], the “agonist EC50 (cAMP AlphaScreen)” value was greater than 100 µM and the “antagonist pA2 (Schild, agonist NDP-MSH)” value turned out to be 6.52. In assay [8], the “inverse agonist apparent potency” value was found to be 0.06 µM and the “inverse agonist, % decrease from basal cAMP” value is -15%. The “inverse agonist, % decrease from basal signal” value in [10] is -50%.

B3: c[Pro-Arg-Phe-hPhe-Arg-Ala-Phe-DPro] (peptide)
peptide: cyclo(PRF[hPhe]RAF[dP])
SMILES: C[C@@H]1NC(=O)[C@H](CCCNC(=N)N)NC(=O)[C@H](CCc2ccccc2)NC(=O)[C@H](Cc2ccccc2)NC(=O)[C@H](CCCNC(=N)N)NC(=O)[C@@H]2CCCN2C(=O)[C@H]2CCCN2C(=O)[C@H](Cc2ccccc2)NC1=O
In the case of B3, the “antagonist pA2 (Schild, agonist NDP-MSH)” value in assay [2] was found to be 8; in assay [3] it was 8.9. In addition, in assay [4], the “% receptor stimulation at 100 µM (cAMP AlphaScreen)” value is 25%. Also, in assay [5], the “EC50 (cAMP AlphaScreen, inverse agonist)” value was greater than 100 µM.

B4: c[Pro-Arg-Phe-hPhe-Arg-Ser-Phe-DPro] (peptide)
peptide: cyclo(PRF[hPhe]RSF[dP])
SMILES: N=C(N)NCCC[C@@H]1NC(=O)[C@H](CCc2ccccc2)NC(=O)[C@H](Cc2ccccc2)NC(=O)[C@H](CCCNC(=N)N)NC(=O)[C@@H]2CCCN2C(=O)[C@H]2CCCN2C(=O)[C@H](Cc2ccccc2)NC(=O)[C@H](CO)NC1=O
B4: the “antagonist pA2 (Schild, agonist NDP-MSH)” value in assay [2] amounted to 7.7; in [3] it was 8.8. Further, in [4], the “% receptor stimulation at 100 µM (cAMP AlphaScreen)” value came out at 30%. In addition, the “EC50 (cAMP AlphaScreen, inverse agonist)” value in assay [5] was greater than 100 µM.

On to cyclo(P[dR]F[dF]NAF[dP]) [c[Pro-DArg-Phe-DPhe-Asn-Ala-Phe-DPro]], for which the “agonist EC50 (cAMP AlphaScreen)” value in assay [11] is 1.2 µM. Further, the “% maximal NDP-MSH response at 100 µM” value in assay [12] was determined as 35%.

B5: c[Pro-Arg-Phe-Phe-Asn-Ser-Phe-DPro] (peptide)
peptide: cyclo(PRFFNSF[dP])
SMILES: N=C(N)NCCC[C@@H]1NC(=O)[C@@H]2CCCN2C(=O)[C@H]2CCCN2C(=O)[C@H](Cc2ccccc2)NC(=O)[C@H](CO)NC(=O)[C@H](CC(N)=O)NC(=O)[C@H](Cc2ccccc2)NC(=O)[C@H](Cc2ccccc2)NC1=O
In the case of B5, the “antagonist pA2 (Schild, agonist NDP-MSH)” value in [2] amounted to 6.1; in [3], 8.1; in assay [7], 6.2; in assay [9], 8.2. Also, the “agonist EC50 (cAMP AlphaScreen)” value in assay [4] was 1.2 µM; in assay [6] it was greater than 100 µM; in [7] it was greater than 100 µM; in assay [9], greater than 100 µM. For the same molecule, the “inverse agonist efficacy, % relative to basal” value in [5] is -14%. In [8], the “inverse agonist, % change” value was -30%.

For the molecule PRFFXAFP (head-to-tail cyclic; Abu at 5; DPro at 8) [c[Pro-Arg-Phe-Phe-Abu-Ala-Phe-DPro]], the “agonist EC50 (cAMP AlphaScreen)” value in assay [6] was greater than 100 µM. In assay [7], the “agonist EC50 (cAMP AlphaScreen)” value was greater than 100 µM and the “antagonist pA2 (Schild, agonist NDP-MSH)” value is less than 5.5. In addition, in assay [8], the “inverse agonist apparent potency” value stood at 0.16 µM and the “inverse agonist, % decrease from basal cAMP” value was -20%. Besides, in [10], the “inverse agonist, % decrease from basal signal” value is -15%.

With cyclo(PRFFNA[Nle][dP]) [c[Pro-Arg-Phe-Phe-Asn-Ala-Nle-DPro]], in assay [4], the “partial agonist, % receptor stimulation” value is 50%. Also, the “inverse agonist, % change” value in assay [1] was -35%.

In the case of cyclo(PRFFNAW[dP]) [c[Pro-Arg-Phe-Phe-Asn-Ala-Trp-DPro]], in assay [1], the “inverse agonist apparent potency” value stood at 0.15 µM and the “inverse agonist, % decrease from basal cAMP” value was -20%.

B6: c[Pro-Arg-Phe-hPhe-Dap-Ser-Nle-DPro] (peptide)
peptide: cyclo(PRF[hPhe][Dap]S[Nle][dP])
SMILES: CCCC[C@@H]1NC(=O)[C@H](CO)NC(=O)[C@H](CN)NC(=O)[C@H](CCc2ccccc2)NC(=O)[C@H](Cc2ccccc2)NC(=O)[C@H](CCCNC(=N)N)NC(=O)[C@@H]2CCCN2C(=O)[C@H]2CCCN2C1=O
Consider B6, for which the figures for the “antagonist pA2 (Schild, agonist NDP-MSH)” value in [2] and in assay [3] were 6.7 and 9.5, respectively. In addition, in assay [4], the “agonist EC50 (cAMP AlphaScreen)” value is greater than 100 µM. Besides, the “EC50 (cAMP AlphaScreen, inverse agonist)” value in [5] is greater than 100 µM.

Regarding cyclo(PRFFNAY[dP]) [c[Pro-Arg-Phe-Phe-Asn-Ala-Tyr-DPro]], in assay [1], the “inverse agonist, % change” value is -40%.

Consider cyclo(PRFFNAK[dP]) [c[Pro-Arg-Phe-Phe-Asn-Ala-Lys-DPro]], for which the “inverse agonist, % change” value in [1] is -40%.

Regarding PRFFNAXP (head-to-tail cyclic; Cha at 7; DPro at 8) [c[Pro-Arg-Phe-Phe-Asn-Ala-Cha-DPro]], in assay [1], the “inverse agonist apparent potency” value came to 0.78 µM and the “inverse agonist, % decrease from basal cAMP” value is -20%.
